Sequences and labels used below:
B1: Serine protease HTRA3 (Homo sapiens), P83110-1 (parent)
chain: MQARALLLAALAALALAREPPAAPCPARCDVSRCPSPRCPGGYVPDLCNCCLVCAASEGEPCGGPLDSPCGESLECVRGLCRCRWSHAVCGTDGHTYANVCALQAASRRALQLSGTPVRQLQKGACPLGLHQLSSPRYKFNFIADVVEKIAPAVVHIELFLRHPLFGRNVPLSSGSGFIMSEAGLIITNAHVVSSNSAAPGRQQLKVQLQNGDSYEATIKDIDKKSDIATIKIHPKKKLPVLLLGHSADLRPGEFVVAIGSPFALQNTVTTGIVSTAQREGRELGLRDSDMDYIQTDAIINYGNSGGPLVNLDGEVIGINTLKVTAGISFAIPSDRITRFLTEFQDKQIKDWKKRFIGIRMRTITPSLVDELKASNPDFPEVSSGIYVQEVAPNSPSQRGGIQDGDIIVKVNGRPLVDSSELQEAVLTESPLLLEVRRGNDDLLFSIAPEVVM
partner: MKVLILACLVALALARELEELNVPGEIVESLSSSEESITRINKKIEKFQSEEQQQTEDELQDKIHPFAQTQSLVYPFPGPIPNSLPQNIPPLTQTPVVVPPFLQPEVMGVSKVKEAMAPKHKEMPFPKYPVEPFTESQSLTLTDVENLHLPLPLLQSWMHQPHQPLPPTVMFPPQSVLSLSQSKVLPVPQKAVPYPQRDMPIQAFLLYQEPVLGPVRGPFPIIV
B2: Serine protease HTRA3 (Homo sapiens), P83110-1 (parent)
chain: B1 chain

One experiment covers variants of B1. Particulars: with casb_bovin CSN2, P02666.
As for MQARALLLAALAALALAREPPAAPCPARCDVSRCPSPRCPGGYVPDLCNCCLVCAASEGEPCGGPLDSPCGESLECVRGLCRCRWSHAVCGTDGHTYANVCALQAASRRALQLSGTPVRQLQKGACPLGLHQLSSPRYKFNFIADVVEKIAPAVVHIELFLRHPLFGRNVPLSSGSGFIMSEAGLIITNAHVVSSNSAAPGRQQLKVQLQNGDSYEATIKDIDKKSDIATIKIHPKKKLPVLLLGHSADLRPGEFVVAIGSPFALQNTVTTGIVSTAQREGRELGLRDSDMDYIQTDAIINYGNSGGPLVNLDGEVIGINTLKVTAGISFAIPSDRITRFLTEFQDKQIKDWKKRFIGIRMATITPSLVDALKASNPDFPEVSSGIYVAEVAPNSPSQRGGIQDGDIIVKVNGRPLVDSSELQEAVLTESPLLLEVRRGNDDLLFSIAPEVVM [R362A;E371A;Q389A], the “effect of a mutation on the interaction” value was “with no effect”.

Variants of B2 are the subject of another experiment. Particulars: with xiap_human XIAP.
Regarding MQARALLLAALAALALAREPPAAPCPARCDVSRCPSPRCPGGYVPDLCNCCLVCAASEGEPCGGPLDSPCGESLECVRGLCRCRWSHAVCGTDGHTYANVCALQAASRRALQLSGTPVRQLQKGACPLGLHQLSSPRYKFNFIADVVEKIAPAVVHIELFLRHPLFGRNVPLSSGSGFIMSEAGLIITNAHVVSSNSAAPGRQQLKVQLQNGDSYEATIKDIDKKSDIATIKIHPKKKLPVLLLGHSADLRPGEFVVAIGSPFALQNTVTTGIVSTAQREGRELGLRDSDMDYIQTDAIINYGNSGGPLVNLDGEVIGINTLKVTAGISFAIPSDRITRFLTEFQDKQIKDWKKRFIGIRMATITPSLVDALKASNPDFPEVSSGIYVAEVAPNSPSQRGGIQDGDIIVKVNGRPLVDSSELQEAVLTESPLLLEVRRGNDDLLFSIAPEVVM [R362A;E371A;Q389A], the “effect of a mutation on the interaction” value is given as “with no effect”.

The values above are taken from IntAct's records for PubMed 28642151.
